Data on 18 molecules can be found in patent US20120077731A1 (Ablynx, published 2012).

Where a chain is given by its changes, count along the chain named.

A word on the koff: it is the first-order rate constant of dissociation. A low value points to a long-lived complex. By IC50 is commonly meant the concentration needed to halve the response being measured. Read a low IC50 as higher potency. The term Kd denotes the constant that tells how readily two partners part at equilibrium. Read a high Kd as weaker binding. Broadly, the kon is a measure of how fast the partners come together.

T1: Human soluble IL-6R (human, UniProt P08887 20-358)
T1 construct: Soluble recombinant form; biotinylated in some assays; also called hIL-6R; human IL-6R
T1 sequence (looked up): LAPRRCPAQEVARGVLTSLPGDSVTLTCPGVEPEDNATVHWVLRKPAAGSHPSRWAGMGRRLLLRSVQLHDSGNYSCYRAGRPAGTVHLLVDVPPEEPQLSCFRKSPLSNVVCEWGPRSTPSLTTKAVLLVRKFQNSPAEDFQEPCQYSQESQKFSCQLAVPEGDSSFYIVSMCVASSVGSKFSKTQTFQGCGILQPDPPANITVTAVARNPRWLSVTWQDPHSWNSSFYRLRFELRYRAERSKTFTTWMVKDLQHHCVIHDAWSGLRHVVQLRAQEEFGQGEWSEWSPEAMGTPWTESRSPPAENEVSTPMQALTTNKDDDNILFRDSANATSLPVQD

T2: Human plasma sIL-6R (human, UniProt P08887 20-355, limits assumed)
T2 construct: also called plasma-derived human IL-6R
T2 sequence (looked up): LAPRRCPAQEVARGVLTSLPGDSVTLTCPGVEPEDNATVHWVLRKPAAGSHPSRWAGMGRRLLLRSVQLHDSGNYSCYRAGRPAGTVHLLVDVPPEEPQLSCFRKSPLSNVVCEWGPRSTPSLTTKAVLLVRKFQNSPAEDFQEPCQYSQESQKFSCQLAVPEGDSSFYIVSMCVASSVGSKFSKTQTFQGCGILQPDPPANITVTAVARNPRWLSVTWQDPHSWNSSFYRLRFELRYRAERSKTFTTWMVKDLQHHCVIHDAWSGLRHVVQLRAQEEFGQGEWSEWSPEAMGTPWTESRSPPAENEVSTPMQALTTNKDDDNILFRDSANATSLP

T3: Cyno plasma sIL-6R (cynomolgus monkey, UniProt A0A2K5WN54 60-396)
T3 construct: also called cynomolgus sIL-6R
T3 sequence: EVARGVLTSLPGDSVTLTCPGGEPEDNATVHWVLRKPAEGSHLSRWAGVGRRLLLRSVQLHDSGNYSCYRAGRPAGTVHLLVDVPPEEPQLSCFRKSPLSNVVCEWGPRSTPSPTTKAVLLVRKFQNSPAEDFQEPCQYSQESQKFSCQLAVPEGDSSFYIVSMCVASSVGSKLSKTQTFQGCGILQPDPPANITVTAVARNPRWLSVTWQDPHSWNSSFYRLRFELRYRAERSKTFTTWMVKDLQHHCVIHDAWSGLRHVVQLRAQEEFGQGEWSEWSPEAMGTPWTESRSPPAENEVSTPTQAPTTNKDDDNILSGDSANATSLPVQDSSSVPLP

T4: Human membrane IL-6R on cells (human, UniProt P08887 20-468)
T4 sequence (looked up): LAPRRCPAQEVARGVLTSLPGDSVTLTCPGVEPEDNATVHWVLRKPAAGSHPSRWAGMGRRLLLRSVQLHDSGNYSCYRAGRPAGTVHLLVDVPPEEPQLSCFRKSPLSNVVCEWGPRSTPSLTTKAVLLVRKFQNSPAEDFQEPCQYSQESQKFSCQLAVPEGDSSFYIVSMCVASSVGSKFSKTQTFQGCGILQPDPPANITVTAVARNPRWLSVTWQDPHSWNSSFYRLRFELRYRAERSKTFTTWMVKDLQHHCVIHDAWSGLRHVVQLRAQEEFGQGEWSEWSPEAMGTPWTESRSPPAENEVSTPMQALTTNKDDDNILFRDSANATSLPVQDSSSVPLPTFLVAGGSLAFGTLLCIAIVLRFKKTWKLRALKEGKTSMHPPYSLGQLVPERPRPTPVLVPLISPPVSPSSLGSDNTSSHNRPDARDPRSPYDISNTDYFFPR

B1: IL6R90 (VHH)
VHH: EVQLVESGGGLVQPGGSLRLSCAASGFTFDDYGMSWVRQAPGKALEWVSAISWNGNNTYYTESMKGRFTISRDNAKNTLYLQMNSLRPEDTAVYYCVKGSTAIVGVPPTYPDEYDYWGQGTLVTVSS
notes: IL6R13 variant, tested as periplasmic extract
B2: IL6R86 (VHH)
VHH: B1 VHH with K43R
notes: as for B1
B3: IL6R88 (VHH)
VHH: B1 VHH with A44G, L45T
notes: tested as periplasmic extract and purified
B4: IL6R89 (VHH)
VHH: B1 VHH with K43R, A44G, L45T
notes: as for B1
B5: IL6R87 (VHH)
VHH: B1 VHH with L45T
notes: as for B1
B6: PMP7D6 (VHH)
VHH: EVQLVESGGGLVQPGGSLRLSCAASGSIFRVNVMAWYRQAPGKGRELVAAVINGGTTTYADSVKGRFTISRDNAKNTLYLQMNSLRPEDTAVYYCAFVTTNSDYDLGRDYWGQGTLVTVSS
notes: not shown: c-myc and (His)6 tags
B7: IL6R71 (VHH)
VHH: EVQLVESGGGLVQPGGSLRLSCAASGFTFDDYDIGWFRQAPGKGREGVSGISSSDGNTYYADSVKGRFTISSDNAKNTVYLQMNSLRPEDTAVYYCAAEPPDSSWYLDGSPEFFKYWGQGTLVTVSS
B8: IL6R74 (VHH)
VHH: B7 VHH with V79L
B9: IL6R73 (VHH)
VHH: B7 VHH with S72R
B10: IL6R72 (VHH)
VHH: B7 VHH with D30S
B11: IL6R75 (VHH)
VHH: B7 VHH with D30S, S72R, V79L
notes: also called ILR7.5; not shown: tag (IL6R201 is called the tagless version of IL6R75)
B12: IL6R81 (VHH)
VHH: B1 VHH with K43R, L45T, L79V
B13: IL6R82 (VHH)
VHH: B1 VHH with A44G, L79V
B14: IL6R83 (VHH)
VHH: B1 VHH with K43R, L45T
B15: PMP7C4 (VHH)
VHH: B6 VHH with S27T, I28T, V31I, A50G, V51I, N53T, G54N, T56S, T58S
notes: as for B6
B16: PMP7G8 (VHH)
VHH: B6 VHH with I28T, V31I, A50G, G54D, T56S
notes: expressed with c-myc and (His)6 tags
B17: PMP7F4 (VHH)
VHH: B6 VHH with S27T, I28T, R30K, A50G, V51I, T56S
B18: PMP7G7 (VHH)
VHH: B6 VHH with S27T, I28T, R30K, V31I, V33I, A50G, N53T, T56N
notes: as for B16

The target of the first test is T1, Human soluble IL-6R. The test can be described thus: Biacore off-rate, periplasmic extracts.
On to B1, for which the koff stood at 0.0019 s⁻¹.
The same measure, in the same setting: the result for B2 reads 0.0017 s⁻¹; that for B3, 0.00026 s⁻¹; that for B4, 0.00019 s⁻¹.
B5 displayed a koff of 0.00011 s⁻¹.

A further test has as its target T2, Human plasma sIL-6R. The test can be described thus: plasma potency assay, human plasma, 2.4 nM IL6; blocked ligand IL-6.
Description: (§1) All 5 affinity matured Nanobodies and the sequence optimized Nanobody were also tested in a plasma potency assay. […] TMB was used as substrate.
Turning to B6, the IC50 stood at 0.25 nM.

The target of another test is T3, Cyno plasma sIL-6R. The test is described as follows: plasma potency assay, cyno plasma, 2.4 nM IL6; blocked ligand IL-6.
Description: as §1
B6 registered a 50% inhibitory concentration (IC50) of 0.13 nM.

The next test concerns the target T1, Human soluble IL-6R. The test is described as follows: Alphascreen IL-6/IL-6R competition (IL-6R 0.3 nM, bio-IL-6 3 nM); row EC50 of the fit table, axis [competitor], M; blocked ligand IL-6. On the technique in general: Alpha assays give light when donor and acceptor beads are brought close together.
B7: the 50% inhibitory concentration (IC50) turned out to be 0.153 nM.
B8: the IC50 was found to be 0.133 nM.
On to B9, for which the IC50 amounted to 0.0916 nM.
Same read-out and setting: the result for B10 reads 0.161 nM.

In another test the target is T1, Human soluble IL-6R. The test is described as follows: SPR Biacore 3000, human IL-6R amine-coupled to CM5. On the technique in general: In SPR one partner is held on a chip, and binding of the other changes the refractive index at the surface.
Description: Remaining reactive groups were inactivated. Nanobody binding was assessed at various concentrations ranging from 0.5 to 50 nM. Each sample was injected for 4 min at a flow rate of 45 μl/min to allow for binding to chip-bound antigen. Next, binding buffer without Nanobody was sent over the chip at the same flow rate to allow for dissociation of bound Nanobody.
As to B11, binding was characterised by a dissociation constant (Kd) of 0.1 nM, the koff turned out to be 0.0001 s⁻¹ and the kon was 1e+06 M⁻¹ s⁻¹.
In turn, B3 displayed a Kd of 0.9 nM, a koff of 0.000213 s⁻¹ and a kon of 230000 M⁻¹ s⁻¹.

A further test concerns the target T1, Human soluble IL-6R. The test is described as follows: Biacore, binding to IL-6R.
B7 returned an equilibrium dissociation constant (Kd) of 0.2 nM, a koff of 0.000153 s⁻¹ and a kon of 703000 M⁻¹ s⁻¹.
For the molecule B8, the dissociation constant Kd was determined as 0.2 nM, the koff was 0.000122 s⁻¹ and the kon stood at 767000 M⁻¹ s⁻¹.
Turning to B9, binding was characterised by a dissociation constant (Kd) of 0.3 nM, the koff came out at 0.000233 s⁻¹ and the on-rate constant (kon) amounted to 698000 M⁻¹ s⁻¹.
B10 registered a dissociation constant Kd of 0.3 nM, a koff of 0.00018 s⁻¹ and an association rate constant (kon) of 543000 M⁻¹ s⁻¹.
Turning to B12, the equilibrium dissociation constant (Kd) was determined as 0.4 nM, the dissociation rate constant (koff) came out at 0.000128 s⁻¹ and the on-rate constant (kon) worked out at 320000 M⁻¹ s⁻¹.
As to B13, binding was characterised by a dissociation constant (Kd) of 5.1 nM, the dissociation rate constant (koff) stood at 0.00314 s⁻¹ and the kon is 619000 M⁻¹ s⁻¹.
Take B14: the Kd came out at 0.3 nM, the koff was determined as 0.00012 s⁻¹ and the kon was 350000 M⁻¹ s⁻¹.

The target of a further test is T1, Human soluble IL-6R. The test can be described thus: Alphascreen IL-6/IL-6R competition with purified Nanobody; row EC50 of the table, axis [inhibitor], M; blocked ligand IL-6.
Molecule B11 registered an IC50 of 0.0432 nM.
B3 yielded an IC50 of 0.0727 nM.

The target of another test is T2, Human plasma sIL-6R. The test can be described thus: plasma potency assay, human plasma, 42 nM IL6; sIL-6R captured on BN-12, bound IL-6 detected; blocked ligand IL-6.
Consider B15, for which the IC50 stood at 0.9 nM.
For the molecule B6, the concentration for half-maximal inhibition (IC50) worked out at 0.8 nM.
As to B16, it took 3.5 nM to reach half-maximal inhibition (IC50).
For the molecule B17, the concentration for half-maximal inhibition (IC50) turned out to be 1.2 nM.
The molecule B18 returned a half-maximal inhibitory concentration (IC50) of 1.5 nM.

A further test concerns the target T1, Human soluble IL-6R. The test can be described thus: SPR (Biacore), binding curves at several concentrations of purified Nanobody on IL-6R.
In the case of B15, the Kd was 0.34 nM.
Consider B6, for which the Kd stood at 0.42 nM.
Molecule B16 displayed an equilibrium dissociation constant (Kd) of 0.95 nM.
The molecule B17 gave a Kd of 0.48 nM.
Regarding B18, binding was put at a Kd of 0.56 nM.

A further test addresses T2, Human plasma sIL-6R. The test is described as follows: plasma potency assay, human plasma, 42 nM IL6; blocked ligand IL-6.
Description: as §1
Take B6: half-maximal inhibition (IC50) was put at 0.95 nM.

Another test concerns the target T2, Human plasma sIL-6R. The test is described as follows: plasma potency assay, human plasma ([IL6R]: ~0.4 nM, [IL6]: 2.4 nM printed); sIL-6R captured on BN-12, bound IL-6 detected; blocked ligand IL-6.
The molecule B15 yielded a concentration for half-maximal inhibition (IC50) of 0.21 nM.
In turn, B6 yielded a half-inhibitory concentration (IC50) of 0.19 nM.
In turn, B16 had an IC50 of 0.34 nM.
Take B17: the IC50 is 0.24 nM.
As for B18, the IC50 worked out at 0.22 nM.

The target in the next test is T1, Human soluble IL-6R. The test can be described thus: Alphascreen IL-6/IL-6R competition (IL-6R 0.3 nM, bio-IL-6 3 nM); row EC50 of the fit table, axis [competitor], M; blocked ligand IL-6. This is another data set of the same source.
B12 showed an IC50 of 0.0747 nM.
Same read-out and setting: the value for B13 was 0.476 nM.
The molecule B14 gave an IC50 of 0.0779 nM.

The next test concerns the target T4, Human membrane IL-6R on cells. The test can be described thus: cell-based or functional assay.
For the molecule B11, the “IC50 values (nM), XG-1 assay” value was 0.04 nM.
Turning to B3, the “IC50 values (nM), XG-1 assay” value is 3.3 nM.

The target in the next test is T3, Cyno plasma sIL-6R. The test is described as follows: plasma potency assay, cyno plasma ([IL6R]: ~0.4 nM, [IL6]: 2.4 nM printed); sIL-6R captured on BN-12, bound IL-6 detected; blocked ligand IL-6.
B15 showed a concentration for half-maximal inhibition (IC50) of 0.08 nM.
The molecule B6 showed an IC50 of 0.09 nM.
The molecule B16 showed a half-inhibitory concentration (IC50) of 0.14 nM.
Consider B17, for which the IC50 was found to be 0.09 nM.
Consider B18, for which the IC50 came out at 0.11 nM.
